Our source for the Kd values is publication PMC4336573 (2015).

This test has as its target T1, Histone H3 K27me3 peptide H3K27me3 peptide (Homo sapiens, UniProt P68431, K27 trimethylation (H3)).
T1 chain: QLATKAARKSAPATGGV
The test can be described thus: fluorescence anisotropy.

B1: CBX7 chromodomain (protein)
chain: FAVESIRKKRVRKGKVEYLVKWKGWPPKYSTWEPEEHILDPRLVMAYEEKEERDRASGY
By Kd is commonly meant the concentration at which binding is half-saturated. A higher Kd goes with lower affinity. As to B1, the Kd stood at 27.7 µM. This lies in the double-digit micromolar range.
